Results on one substance are retold here after article PMC9245660 (Proceedings of the National Academy of Sciences of the …, 2022).

The target in this assay is Tom22-T1′ (Tom22 without helix H1) (human) (UniProt Q9NS69). In words: pull-down.

Substance Su9-TEV-DHFR-EGFP-Strep showed a decrease in the binding ability against Tom22 before cleavage of 75%.
